As usually defined, the Kd is the constant that tells how readily two partners part at equilibrium.

Sequences and labels used below:
B1: VH SEQ ID NO 618 / VL SEQ ID NO 470 (antibody, IgG4, V domains shown)
VH: QVQLQESGPGLVKPSQTLSLTCTVSGYSISSDSAWSWIRQFPGKGLEWIGYIQYSGSTNYNPSLKSRVTISRDTSKNQFSLKLSSVTAADTAVYYCARSVNYYGNSFAVGPWGQGTLVTVSS
VL: EIVLTQSPATLSLSPGERATLSCRASQGVSDYLHWYQQKPGQAPRLLIKYASQPATGIPARFSGSGSGTDFTLTISSLEPEDFAVYYCQNGHSFPLTFGQGTKLEIK
notes: humanized 11F2; IgG4 S228P/kappa
B2: VH SEQ ID NO 618 / VL SEQ ID NO 494 (antibody, IgG4, V domains shown)
VH: QVQLQESGPGLVKPSQTLSLTCTVSGYSISSDSAWSWIRQFPGKGLEWIGYIQYSGSTNYNPSLKSRVTISRDTSKNQFSLKLSSVTAADTAVYYCARSVNYYGNSFAVGPWGQGTLVTVSS
VL: EIVLTQSPATLSLSPGERATLSCRASQGVSDYLHWYQQKPGQAPRLLIKYASQPATGIPARFSGSGSGTDFTLTISSLEPEDVAVYYCQNGHSFPLTFGQGTKLEIK
notes: as for B1
B3: VH SEQ ID NO 626 / VL SEQ ID NO 430 (antibody, IgG4, V domains shown)
VH: QVQLQESGPGLVKPSQTLSLTCTVSGYSISSDSAWSWIRQPPGKGLEWIGYIQYSGSTNYNPSLKSRVTISRDTSKNQFSLKLSSVTAADTAVYYCARSVNYYGNSFAVGPWGQGTLVTVSS
VL: EIVLTQSPATLSLSPGERATLSCRASQGVSDYLAWYQQKPGQAPRLLIKYASQPATGIPARFSGSGSGTDFTLTISSLEPEDFGVYYCQNGHSFPLTFGQGTKLEIK
notes: as for B1
B4: VH SEQ ID NO 626 / VL SEQ ID NO 350 (antibody, IgG4, V domains shown)
VH: QVQLQESGPGLVKPSQTLSLTCTVSGYSISSDSAWSWIRQPPGKGLEWIGYIQYSGSTNYNPSLKSRVTISRDTSKNQFSLKLSSVTAADTAVYYCARSVNYYGNSFAVGPWGQGTLVTVSS
VL: EIVLTQSPATLSLSPGERATLSCRASQGISDYLHWYQQKPGQAPRLLIKYTSQPATGIPARFSGSGSGTDFTLTISSLEPEDFAVYYCQNGHSFPLTFGAGTKLELK
notes: as for B1
B5: VH SEQ ID NO 618 / VL SEQ ID NO 486 (antibody, IgG4, V domains shown)
VH: QVQLQESGPGLVKPSQTLSLTCTVSGYSISSDSAWSWIRQFPGKGLEWIGYIQYSGSTNYNPSLKSRVTISRDTSKNQFSLKLSSVTAADTAVYYCARSVNYYGNSFAVGPWGQGTLVTVSS
VL: EIVLTQSPATLSLSPGERATLSCRASQGVSDYLHWYQQKPGQAPRLLIKYASQPATGIPARFSGSGSGTDFTLTISSLEPEDFGVYYCQNGHSFPLTFGQGTKLEIK
notes: as for B1
B6: VH SEQ ID NO 626 / VL SEQ ID NO 310 (antibody, IgG4, V domains shown)
VH: QVQLQESGPGLVKPSQTLSLTCTVSGYSISSDSAWSWIRQPPGKGLEWIGYIQYSGSTNYNPSLKSRVTISRDTSKNQFSLKLSSVTAADTAVYYCARSVNYYGNSFAVGPWGQGTLVTVSS
VL: EIVLTQSPATLSLSPGERATLSCRASQGISDYLAWYQQKPGQAPRLLIKYASQPATGIPARFSGSGSGTDFTLTISSLEPEDFAVYYCQNGHSFPLTFGQGTKLEIK
notes: as for B1
B7: VH SEQ ID NO 626 / VL SEQ ID NO 390 (antibody, IgG4, V domains shown)
VH: QVQLQESGPGLVKPSQTLSLTCTVSGYSISSDSAWSWIRQPPGKGLEWIGYIQYSGSTNYNPSLKSRVTISRDTSKNQFSLKLSSVTAADTAVYYCARSVNYYGNSFAVGPWGQGTLVTVSS
VL: EIVLTQSPATLSLSPGERATLSCRASQGVSDYLAWYQQKPGEAPRLLIKYASQPATGIPARFSGSGSGTDFTLTISSLEPEDFAVYYCQNGHSFPLTFGQGTKLEIK
notes: as for B1
B8: VH SEQ ID NO 626 / VL SEQ ID NO 414 (antibody, IgG4, V domains shown)
VH: QVQLQESGPGLVKPSQTLSLTCTVSGYSISSDSAWSWIRQPPGKGLEWIGYIQYSGSTNYNPSLKSRVTISRDTSKNQFSLKLSSVTAADTAVYYCARSVNYYGNSFAVGPWGQGTLVTVSS
VL: EIVLTQSPATLSLSPGERATLSCRASQGVSDYLAWYQQKPGQAPRLLIKYASQPATGIPARFSGSGSGTDFTLTISSLEPEDFAVYYCQNGHSFPLTFGQGTKLEIK
notes: as for B1
B9: VH SEQ ID NO 618 / VL SEQ ID NO 502 (antibody, IgG4, V domains shown)
VH: QVQLQESGPGLVKPSQTLSLTCTVSGYSISSDSAWSWIRQFPGKGLEWIGYIQYSGSTNYNPSLKSRVTISRDTSKNQFSLKLSSVTAADTAVYYCARSVNYYGNSFAVGPWGQGTLVTVSS
VL: EIVLTQSPATLSLSPGERATLSCRASQGVSDYLHWYQQKPGQAPRLLIKYTSQPATGIPARFSGSGSGTDFTLTISSLEPEDFAVYYCQNGHSFPLTFGQGTKLEIK
notes: as for B1
B10: VH SEQ ID NO 626 / VL SEQ ID NO 422 (antibody, IgG4, V domains shown)
VH: QVQLQESGPGLVKPSQTLSLTCTVSGYSISSDSAWSWIRQPPGKGLEWIGYIQYSGSTNYNPSLKSRVTISRDTSKNQFSLKLSSVTAADTAVYYCARSVNYYGNSFAVGPWGQGTLVTVSS
VL: EIVLTQSPATLSLSPGERATLSCRASQGVSDYLAWYQQKPGQAPRLLIKYASQPATGIPARFSGSGSGTDFTLTISSLEPEDFAVYYCQQGHSFPLTFGQGTKLEIK
notes: as for B1
B11: VH SEQ ID NO 626 / VL SEQ ID NO 382 (antibody, IgG4, V domains shown)
VH: QVQLQESGPGLVKPSQTLSLTCTVSGYSISSDSAWSWIRQPPGKGLEWIGYIQYSGSTNYNPSLKSRVTISRDTSKNQFSLKLSSVTAADTAVYYCARSVNYYGNSFAVGPWGQGTLVTVSS
VL: EIVLTQSPATLSLSPGERATLSCRASQGLSDYLHWYQQKPGEAPRLLIKYASQPATGIPARFSGSGSGTDFTLTISSLEPEDFAVYYCQNGHSFPLTFGQGTKLEIK
notes: as for B1
B12: VH SEQ ID NO 626 / VL SEQ ID NO 406 (antibody, IgG4, V domains shown)
VH: QVQLQESGPGLVKPSQTLSLTCTVSGYSISSDSAWSWIRQPPGKGLEWIGYIQYSGSTNYNPSLKSRVTISRDTSKNQFSLKLSSVTAADTAVYYCARSVNYYGNSFAVGPWGQGTLVTVSS
VL: EIVLTQSPATLSLSPGERATLSCRASQGVSDYLAWYQQKPGQAPRLLIKYASQPATGIPARFSGSGSGTDFTLTISSLEPEDFAVYYCQNGHSFPLTFGAGTKLEIK
notes: as for B1
B13: VH SEQ ID NO 626 / VL SEQ ID NO 334 (antibody, IgG4, V domains shown)
VH: QVQLQESGPGLVKPSQTLSLTCTVSGYSISSDSAWSWIRQPPGKGLEWIGYIQYSGSTNYNPSLKSRVTISRDTSKNQFSLKLSSVTAADTAVYYCARSVNYYGNSFAVGPWGQGTLVTVSS
VL: EIVLTQSPATLSLSPGERATLSCRASQGISDYLHWYQQKPGQAPRLLIKYASQPATGIPARFSGSGSGTDFTLTISSLEPEDFAVYYCQNGHSFPLTFGQGTKLEIK
notes: as for B1
B14: VH SEQ ID NO 626 / VL SEQ ID NO 398 (antibody, IgG4, V domains shown)
VH: QVQLQESGPGLVKPSQTLSLTCTVSGYSISSDSAWSWIRQPPGKGLEWIGYIQYSGSTNYNPSLKSRVTISRDTSKNQFSLKLSSVTAADTAVYYCARSVNYYGNSFAVGPWGQGTLVTVSS
VL: EIVLTQSPATLSLSPGERATLSCRASQGVSDYLAWYQQKPGEAPRLLIKYTSQPATGIPARFSGSGSGTDFTLTISSLEPEDFAVYYCQNGHSFPLTFGQGTKLEIK
notes: as for B1
B15: VH SEQ ID NO 618 / VL SEQ ID NO 478 (antibody, IgG4, V domains shown)
VH: QVQLQESGPGLVKPSQTLSLTCTVSGYSISSDSAWSWIRQFPGKGLEWIGYIQYSGSTNYNPSLKSRVTISRDTSKNQFSLKLSSVTAADTAVYYCARSVNYYGNSFAVGPWGQGTLVTVSS
VL: EIVLTQSPATLSLSPGERATLSCRASQGVSDYLHWYQQKPGQAPRLLIKYASQPATGIPARFSGSGSGTDFTLTISSLEPEDFAVYYCQQGHSFPLTFGQGTKLEIK
notes: as for B1
B16: VH SEQ ID NO 626 / VL SEQ ID NO 366 (antibody, IgG4, V domains shown)
VH: QVQLQESGPGLVKPSQTLSLTCTVSGYSISSDSAWSWIRQPPGKGLEWIGYIQYSGSTNYNPSLKSRVTISRDTSKNQFSLKLSSVTAADTAVYYCARSVNYYGNSFAVGPWGQGTLVTVSS
VL: EIVLTQSPATLSLSPGERATLSCRASQGLSDYLAWYQQKPGEAPRLLIKYASQPATGIPARFSGSGSGTDFTLTISSLEPEDFAVYYCQNGHSFPLTFGQGTKLEIK
notes: as for B1
B17: VH SEQ ID NO 626 / VL SEQ ID NO 342 (antibody, IgG4, V domains shown)
VH: QVQLQESGPGLVKPSQTLSLTCTVSGYSISSDSAWSWIRQPPGKGLEWIGYIQYSGSTNYNPSLKSRVTISRDTSKNQFSLKLSSVTAADTAVYYCARSVNYYGNSFAVGPWGQGTLVTVSS
VL: EIVLTQSPATLSLSPGERATLSCRASQGISDYLHWYQQKPGQAPRLLIKYTSQPATGIPARFSGSGSGRDFTLTISSLEPEDFAVYYCQNGHSFPLTFGAGTKLELK
notes: as for B1
B18: VH SEQ ID NO 626 / VL SEQ ID NO 358 (antibody, IgG4, V domains shown)
VH: QVQLQESGPGLVKPSQTLSLTCTVSGYSISSDSAWSWIRQPPGKGLEWIGYIQYSGSTNYNPSLKSRVTISRDTSKNQFSLKLSSVTAADTAVYYCARSVNYYGNSFAVGPWGQGTLVTVSS
VL: EIVLTQSPATLSLSPGERATLSCRASQGISDYLHWYQQKPGQAPRLLIKYTSQPATGIPARFSGSGSGTDFTLTISSLEPEDFAVYYCQNGHSFPLTFGQGTKLEIK
notes: as for B1
B19: VH SEQ ID NO 626 / VL SEQ ID NO 326 (antibody, IgG4, V domains shown)
VH: QVQLQESGPGLVKPSQTLSLTCTVSGYSISSDSAWSWIRQPPGKGLEWIGYIQYSGSTNYNPSLKSRVTISRDTSKNQFSLKLSSVTAADTAVYYCARSVNYYGNSFAVGPWGQGTLVTVSS
VL: EIVLTQSPATLSLSPGERATLSCRASQGISDYLHWYQQKPGEAPRLLIKYTSQPATGIPARFSGSGSGTDFTLTISSLEPEDFGVYYCQNGHSFPLTFGAGTKLELK
notes: as for B1
B20: VH SEQ ID NO 626 / VL SEQ ID NO 318 (antibody, IgG4, V domains shown)
VH: QVQLQESGPGLVKPSQTLSLTCTVSGYSISSDSAWSWIRQPPGKGLEWIGYIQYSGSTNYNPSLKSRVTISRDTSKNQFSLKLSSVTAADTAVYYCARSVNYYGNSFAVGPWGQGTLVTVSS
VL: EIVLTQSPATLSLSPGERATLSCRASQGISDYLHWYQQKPGEAPRLLIKYTSQPATGIPARFSGSGSGTDFTLTISSLEPEDFAVYYCQNGHSFPLTFGQGTKLEIK
notes: as for B1

The target in the assay is T1, recombinant human activated Factor VII (FVIIa) (human, UniProt P08709 61-212; P08709 213-466, ten glutamate residues of the Gla domain may be gamma-carboxylated).
T1 construct: chains tethered by a disulfide bond; also called Factor VIIa; rFVIIa
T1 sequence 1: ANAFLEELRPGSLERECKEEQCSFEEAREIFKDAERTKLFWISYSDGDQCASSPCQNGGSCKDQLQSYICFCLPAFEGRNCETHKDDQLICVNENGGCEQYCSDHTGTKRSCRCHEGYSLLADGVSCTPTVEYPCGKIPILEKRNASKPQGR
T1 sequence 2: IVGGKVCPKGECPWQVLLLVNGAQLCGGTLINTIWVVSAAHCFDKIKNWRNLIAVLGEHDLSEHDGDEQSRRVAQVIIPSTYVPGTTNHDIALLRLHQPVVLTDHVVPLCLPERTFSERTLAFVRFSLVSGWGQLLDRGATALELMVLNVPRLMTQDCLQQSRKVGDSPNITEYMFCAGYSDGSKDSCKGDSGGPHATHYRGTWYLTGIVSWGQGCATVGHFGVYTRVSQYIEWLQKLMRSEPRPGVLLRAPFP
The assay can be described thus: BLI (Fortebio). On the technique in general: Biolayer interferometry detects binding as a change in optical thickness at a sensor tip.
Turning to B1, the Kd came out at 1.2 nM.

For B2, the Kd came to 1.4 nM.

Consider B3, for which the dissociation constant (Kd) is 53 nM.

On to B4, for which the Kd worked out at 0.65 nM.

As to B5, the Kd stood at 1.2 nM.

In the case of B6, the Kd is 9.2 nM.

Consider B7, for which the Kd is 27 nM.

On to B8, for which the Kd turned out to be 18 nM.

B9: the Kd worked out at 1.2 nM.

For B10, the Kd is 2400 nM.

B11: the Kd amounted to 1.1 nM.

Turning to B12, the Kd is 87 nM.

Take B13: the Kd was found to be 0.95 nM.

With B14, the Kd came to 820 nM.

As to B15, the Kd came to 2 nM.

Turning to B16, the Kd is 87 nM.

Take B17: the Kd was 0.85 nM.

Consider B18, for which the equilibrium dissociation constant (Kd) came out at 0.72 nM.

Regarding B19, the Kd is 0.79 nM.

With B20, the Kd came to 0.71 nM.

Values taken from US20220064329A1 (Novo Nordisk, published 2022).
